Measurements published in paper PMC11560669 (Angewandte Chemie (International ed. in English), 2024).
Substitutions are numbered along the chain they refer to. Numbers in names are those of the source. Where two headings read alike, the source gives them in different places. One block for each molecule: values may come before it.

What was measured:
[1] = molecular target: extracellular domain (ECD) of human epidermal growth factor receptor (EGFR) (human) (UniProt P00533); experiment: cross-linking
MBP-Z(6H) = experiment: cross-linking
MBP-Z(6Y) = experiment: cross-linking
MBP-Z(6K) = experiment: cross-linking
[2] = molecular target: extracellular domain (ECD) of human epidermal growth factor receptor 2 (HER2) (human) (UniProt P04626); experiment: cross-linking
[3] = molecular target: extracellular domain (ECD) of human epidermal growth factor receptor 2 (HER2) (human) (UniProt P04626); experiment: cross-linking; remark: listed apart in the source
[4] = molecular target: extracellular domain (ECD) of human epidermal growth factor receptor 2 (HER2) (human) (UniProt P04626); experiment: cross-linking; remark: listed apart in the source
[5] = molecular target: extracellular domain (ECD) of human epidermal growth factor receptor 2 (HER2) (Homo sapiens, UniProt P04626); experiment: ELISA

Molecule: nanobody 7D12(Y109FFY/E44R) (VHH)
kobs of cross-linking [1]: 0.66 h⁻¹

Molecule: Zspa affibody Afb(36PFY/F32R) (designed binder)
percent increase of the PFEx cross-linking rate against Afb(36PFY) (MBP-Z(6H)): 44%
kobs of cross-linking (MBP-Z(6Y)): 0.0218 h⁻¹

Molecule: Zspa affibody Afb(36FSY/F32R) (designed binder)
fold change of cross-linking rate against Afb(36FSY) (MBP-Z(6H)): 3.7 fold
fold change of cross-linking yield at 16 h against Afb(36FSY) (MBP-Z(6H)): 2.9 fold
fold change of cross-linking rate against Afb(36FSY) (MBP-Z(6K)): 3.4 fold
fold change of cross-linking yield at 16 h against Afb(36FSY) (MBP-Z(6K)): 2.3 fold
fold change of cross-linking rate against Afb(36FSY) (MBP-Z(6Y)): 10.5 fold
fold change of cross-linking yield at 16 h against Afb(36FSY) (MBP-Z(6Y)): 7.9 fold

Molecule: nanobody 2rs15d(D54FSY) (VHH)
kobs of cross-linking [2]: 0.568 h⁻¹

B3: nanobody 2rs15d(D54Y) with the Arg mutation at G55 (VHH)
VHH: QVQLQESGGGSVQAGGSLKLTCAASGYIFNSCGMGWYRQSPGRERELVSRISGYRDTWHKESVKGRFTISQDNVKKTLYLQMNSLKPEDTAVYFCAVCYNLETYWGQGTQVTVSS
binding result [5]: binds

Next, values leading:

kobs of cross-linking [1]: 0.342 h⁻¹
Molecule: nanobody 7D12(Y109FSY/E44R) (VHH)

fold change of kobs of cross-linking against 7D12(Y109FSY)-C21 [1]: 2.5 fold
Molecule: covalent NK engager 7D12(Y109FSY/E44R)-C21 (bispecific antibody)

fold change of kobs of cross-linking against 2rs15d(D54FSY) at pH 6.0 [3]: 10.7 fold
kobs of cross-linking [3]: 0.705 h⁻¹
fold change of kobs of cross-linking against 2rs15d(D54FSY) at pH 6.5 [4]: 6.6 fold
kobs of cross-linking [4]: 0.888 h⁻¹
kobs of cross-linking [2]: 1.96 h⁻¹
Molecule: nanobody 2rs15d(D54FSY/D56R) (VHH)

fold change of kobs of cross-linking against 7D12(Y109mFSY) [1]: 1.9 fold
Molecule: nanobody 7D12(Y109mFSY/E44R) (VHH)

binding result [5]: binds
B1: nanobody 2rs15d(D54Y) with the Arg mutation at G53 (VHH)
VHH: B3 VHH with G53R, R55G

fold decrease of binding affinity against 2rs15d(D54Y) [5]: 14 fold
B2: nanobody 2rs15d(D54Y) with the Arg mutation at D56 (VHH)
VHH: B3 VHH with R55G, D56R
